Molecular target: the molecule itself
Assay: native gel or EMSA

B1: BAK (BCL-2 homologous antagonist/killer), endogenous in mouse liver mitochondria (natural protein, UniProt O08734 1-209, looked up)
chain: MASGQGPGPPKVGCDESPSPSEQQVAQDTEEVFRSYVFYLHQQEQETQGAAAPANPEMDNLPLEPNSILGQVGRQLALIGDDINRRYDTEFQNLLEQLQPTAGNAYELFTKIASSLFKSGISWGRVVALLGFGYRLALYVYQRGLTGFLGQVTCFLADIILHHYIARWIAQRGGWVAALNFRRDPILTVMVIFGVVLLGQFVVHRFFRS
stoichiometry N: 2
